Data as given in patent publication US20150258192A1, “COMPOSITIONS AND METHODS FOR PREVENTING OR TREATING CHRONIC LUNG ALLOGRAFT DYSFUNCTION (CLAD) AND IDIOPATHIC PULMONARY FIBROSIS (IPF)” (priority 2014, published 2015).
No end group written: not given here.

Tests used:
Experiment in all cases: Kinase Profiling Assay
Format in all cases: biochemical
Settings in all cases: peptide 100 μM
BRK(h) = BRK(h) (Homo sapiens, UniProt Q13882)
How it was run: (§1)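 Measured twice per kinase, activity in presence of MK2 inhibitory peptide was calculated against a 100% activity control after radiometric phosphorylation of a cationic substrate, anionic filter capture and scintillation counting; one of 266 human kinases profiled for specificity.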

DDR2(h) = molecular target: T1, DDR2(h) (Homo sapiens, UniProt Q16832)
T1 sequence (Q16832 22-855): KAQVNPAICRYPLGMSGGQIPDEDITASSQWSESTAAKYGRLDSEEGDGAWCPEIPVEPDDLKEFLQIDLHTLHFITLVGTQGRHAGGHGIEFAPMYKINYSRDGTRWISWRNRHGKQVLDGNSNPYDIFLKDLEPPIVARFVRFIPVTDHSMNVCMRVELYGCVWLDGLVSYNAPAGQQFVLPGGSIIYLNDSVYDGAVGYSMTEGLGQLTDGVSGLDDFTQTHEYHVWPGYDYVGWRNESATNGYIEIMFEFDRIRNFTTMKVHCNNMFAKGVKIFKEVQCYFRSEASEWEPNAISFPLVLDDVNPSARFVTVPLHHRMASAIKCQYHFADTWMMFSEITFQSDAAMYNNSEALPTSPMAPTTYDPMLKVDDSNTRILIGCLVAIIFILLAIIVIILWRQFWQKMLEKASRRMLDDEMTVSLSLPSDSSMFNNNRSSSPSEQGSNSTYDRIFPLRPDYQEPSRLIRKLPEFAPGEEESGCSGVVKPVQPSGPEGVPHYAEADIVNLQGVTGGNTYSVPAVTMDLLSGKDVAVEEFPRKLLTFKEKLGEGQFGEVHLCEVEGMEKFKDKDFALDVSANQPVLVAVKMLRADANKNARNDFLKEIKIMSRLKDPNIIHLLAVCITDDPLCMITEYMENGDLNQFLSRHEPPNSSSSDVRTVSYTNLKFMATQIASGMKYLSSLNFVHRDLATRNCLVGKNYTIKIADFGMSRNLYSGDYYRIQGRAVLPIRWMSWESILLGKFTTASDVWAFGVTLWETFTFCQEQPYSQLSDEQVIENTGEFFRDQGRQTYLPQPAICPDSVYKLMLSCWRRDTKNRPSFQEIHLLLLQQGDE
How it was run: as §1

FGFR1(V561M)(h) = FGFR1(V561M)(h) (Homo sapiens, UniProt P11362, V561M)
Sequence of FGFR1(V561M)(h) (P11362 22-822 V561M): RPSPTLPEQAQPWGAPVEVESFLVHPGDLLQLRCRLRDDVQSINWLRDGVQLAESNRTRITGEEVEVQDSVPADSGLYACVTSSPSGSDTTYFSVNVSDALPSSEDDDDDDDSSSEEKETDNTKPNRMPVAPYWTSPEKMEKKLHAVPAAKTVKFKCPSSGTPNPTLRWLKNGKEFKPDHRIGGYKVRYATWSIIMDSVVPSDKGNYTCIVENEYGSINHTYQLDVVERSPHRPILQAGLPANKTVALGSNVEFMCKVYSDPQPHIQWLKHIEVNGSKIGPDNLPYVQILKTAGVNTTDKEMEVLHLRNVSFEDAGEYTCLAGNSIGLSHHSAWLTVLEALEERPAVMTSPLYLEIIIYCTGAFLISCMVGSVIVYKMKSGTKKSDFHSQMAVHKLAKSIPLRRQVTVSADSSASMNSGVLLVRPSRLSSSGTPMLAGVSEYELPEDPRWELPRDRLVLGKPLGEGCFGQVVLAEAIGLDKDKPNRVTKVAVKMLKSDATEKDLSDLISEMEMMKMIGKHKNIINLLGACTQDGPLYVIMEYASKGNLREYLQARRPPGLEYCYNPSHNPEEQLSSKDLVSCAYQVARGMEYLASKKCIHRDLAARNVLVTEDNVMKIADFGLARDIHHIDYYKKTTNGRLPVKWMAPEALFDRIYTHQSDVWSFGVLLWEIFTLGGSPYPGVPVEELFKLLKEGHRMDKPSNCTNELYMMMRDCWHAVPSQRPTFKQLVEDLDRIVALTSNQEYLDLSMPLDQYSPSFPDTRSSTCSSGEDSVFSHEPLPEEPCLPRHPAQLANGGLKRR
How it was run: as §1

MAPK2(h) = molecular target: T2, MAPK2(h) (Homo sapiens, UniProt P28482)
T2 construct: purchased Millipore
T2 sequence (P28482 whole entry): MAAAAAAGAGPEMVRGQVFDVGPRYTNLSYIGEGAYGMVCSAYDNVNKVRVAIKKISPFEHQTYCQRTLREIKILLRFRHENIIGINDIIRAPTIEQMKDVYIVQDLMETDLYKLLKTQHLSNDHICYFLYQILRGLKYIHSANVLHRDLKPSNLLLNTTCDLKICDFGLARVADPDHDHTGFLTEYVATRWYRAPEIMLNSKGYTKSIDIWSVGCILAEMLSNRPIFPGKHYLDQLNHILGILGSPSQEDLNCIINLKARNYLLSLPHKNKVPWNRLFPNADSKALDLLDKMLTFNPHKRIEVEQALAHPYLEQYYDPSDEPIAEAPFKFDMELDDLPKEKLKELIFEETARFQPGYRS
How it was run: as §1

MAPKAP-K2(h) = molecular target: T3, MAPKAP-K2(h) (Homo sapiens, UniProt P49137)
T3 construct: purchased Millipore
T3 sequence (P49137 whole entry): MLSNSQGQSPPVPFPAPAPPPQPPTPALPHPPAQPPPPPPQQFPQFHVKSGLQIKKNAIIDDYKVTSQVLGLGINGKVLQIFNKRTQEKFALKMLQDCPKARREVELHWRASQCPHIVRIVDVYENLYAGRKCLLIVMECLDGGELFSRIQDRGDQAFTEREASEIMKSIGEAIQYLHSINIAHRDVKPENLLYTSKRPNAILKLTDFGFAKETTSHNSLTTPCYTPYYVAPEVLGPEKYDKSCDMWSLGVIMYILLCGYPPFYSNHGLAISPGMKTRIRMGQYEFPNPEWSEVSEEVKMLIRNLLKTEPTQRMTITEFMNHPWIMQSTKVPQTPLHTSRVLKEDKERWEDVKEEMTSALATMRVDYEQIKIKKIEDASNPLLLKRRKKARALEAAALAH
How it was run: as §1

MINK(h) = molecular target: T4, MINK(h) (Homo sapiens, UniProt Q8N4C8)
T4 construct: purchased Millipore
T4 sequence (Q8N4C8 whole entry): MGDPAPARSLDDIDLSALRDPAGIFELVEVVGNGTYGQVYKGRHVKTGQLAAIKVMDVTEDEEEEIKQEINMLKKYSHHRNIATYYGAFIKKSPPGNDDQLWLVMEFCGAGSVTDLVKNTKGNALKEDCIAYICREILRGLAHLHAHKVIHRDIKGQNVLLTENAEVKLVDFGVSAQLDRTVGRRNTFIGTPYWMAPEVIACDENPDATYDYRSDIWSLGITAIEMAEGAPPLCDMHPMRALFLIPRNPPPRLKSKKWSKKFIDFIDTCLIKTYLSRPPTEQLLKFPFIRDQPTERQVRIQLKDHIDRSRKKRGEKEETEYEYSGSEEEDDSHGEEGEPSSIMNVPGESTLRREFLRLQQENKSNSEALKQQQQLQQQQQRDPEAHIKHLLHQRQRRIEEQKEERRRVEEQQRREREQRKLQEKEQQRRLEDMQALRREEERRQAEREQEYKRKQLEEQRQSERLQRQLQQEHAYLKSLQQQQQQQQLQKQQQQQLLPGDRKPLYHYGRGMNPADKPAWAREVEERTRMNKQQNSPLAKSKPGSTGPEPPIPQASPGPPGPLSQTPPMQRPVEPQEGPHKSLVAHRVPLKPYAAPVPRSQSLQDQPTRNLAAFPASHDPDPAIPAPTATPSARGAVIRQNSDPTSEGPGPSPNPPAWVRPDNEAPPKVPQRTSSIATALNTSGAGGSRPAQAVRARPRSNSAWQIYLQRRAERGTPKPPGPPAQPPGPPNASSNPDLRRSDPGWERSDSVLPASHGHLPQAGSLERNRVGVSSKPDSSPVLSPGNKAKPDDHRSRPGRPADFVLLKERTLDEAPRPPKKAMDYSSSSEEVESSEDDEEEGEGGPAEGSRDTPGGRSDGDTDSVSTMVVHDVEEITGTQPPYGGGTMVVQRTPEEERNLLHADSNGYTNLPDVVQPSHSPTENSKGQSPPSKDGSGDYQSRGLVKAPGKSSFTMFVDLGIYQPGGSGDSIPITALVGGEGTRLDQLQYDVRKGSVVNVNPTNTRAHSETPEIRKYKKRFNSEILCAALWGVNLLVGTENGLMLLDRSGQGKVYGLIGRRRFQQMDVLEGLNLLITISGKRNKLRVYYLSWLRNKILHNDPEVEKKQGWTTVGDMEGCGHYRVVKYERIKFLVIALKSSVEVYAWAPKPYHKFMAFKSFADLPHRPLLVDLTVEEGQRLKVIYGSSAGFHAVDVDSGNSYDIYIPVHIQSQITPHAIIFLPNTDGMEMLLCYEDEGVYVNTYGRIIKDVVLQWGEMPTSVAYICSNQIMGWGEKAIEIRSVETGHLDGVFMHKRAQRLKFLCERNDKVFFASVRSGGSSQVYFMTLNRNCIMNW
How it was run: as §1

PDK1(h) = molecular target: T5, PDK1(h) (Homo sapiens, UniProt O15530)
T5 sequence (O15530 1-556): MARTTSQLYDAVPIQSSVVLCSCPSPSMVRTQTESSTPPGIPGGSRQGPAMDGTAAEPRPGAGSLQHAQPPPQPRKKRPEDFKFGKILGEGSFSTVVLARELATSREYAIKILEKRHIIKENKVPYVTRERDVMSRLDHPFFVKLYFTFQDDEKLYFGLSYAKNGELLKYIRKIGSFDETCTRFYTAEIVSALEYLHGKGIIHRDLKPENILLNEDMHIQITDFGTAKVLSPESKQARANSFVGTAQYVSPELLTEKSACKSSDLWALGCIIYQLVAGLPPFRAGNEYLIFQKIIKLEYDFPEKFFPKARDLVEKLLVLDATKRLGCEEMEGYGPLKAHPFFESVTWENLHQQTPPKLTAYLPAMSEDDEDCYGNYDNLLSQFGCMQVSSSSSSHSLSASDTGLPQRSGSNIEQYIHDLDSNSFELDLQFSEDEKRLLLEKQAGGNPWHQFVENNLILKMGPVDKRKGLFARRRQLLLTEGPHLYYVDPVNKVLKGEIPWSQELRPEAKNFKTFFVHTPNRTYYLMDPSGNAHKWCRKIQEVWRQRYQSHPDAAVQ
How it was run: as §1

RIPK2(h) = RIPK2(h) (Homo sapiens, UniProt O43353)
Sequence of RIPK2(h) (O43353 whole entry): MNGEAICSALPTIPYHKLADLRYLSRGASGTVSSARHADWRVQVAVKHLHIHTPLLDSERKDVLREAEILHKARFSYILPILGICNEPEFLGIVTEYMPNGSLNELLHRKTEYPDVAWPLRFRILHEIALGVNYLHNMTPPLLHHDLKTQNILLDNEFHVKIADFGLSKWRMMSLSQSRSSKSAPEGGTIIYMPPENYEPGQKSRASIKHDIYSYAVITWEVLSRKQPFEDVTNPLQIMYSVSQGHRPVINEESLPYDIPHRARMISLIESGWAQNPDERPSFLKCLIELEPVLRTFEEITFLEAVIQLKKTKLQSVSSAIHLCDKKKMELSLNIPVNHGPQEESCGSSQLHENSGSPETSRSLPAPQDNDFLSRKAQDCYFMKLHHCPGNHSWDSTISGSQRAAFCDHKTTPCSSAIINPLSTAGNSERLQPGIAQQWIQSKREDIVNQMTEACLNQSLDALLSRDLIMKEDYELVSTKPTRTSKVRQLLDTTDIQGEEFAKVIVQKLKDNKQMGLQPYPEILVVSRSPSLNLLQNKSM
How it was run: as §1

SAPK4(h) = molecular target: T6, SAPK4(h) (Homo sapiens, UniProt O15264)
T6 construct: purchased Millipore
T6 sequence (O15264 1-365): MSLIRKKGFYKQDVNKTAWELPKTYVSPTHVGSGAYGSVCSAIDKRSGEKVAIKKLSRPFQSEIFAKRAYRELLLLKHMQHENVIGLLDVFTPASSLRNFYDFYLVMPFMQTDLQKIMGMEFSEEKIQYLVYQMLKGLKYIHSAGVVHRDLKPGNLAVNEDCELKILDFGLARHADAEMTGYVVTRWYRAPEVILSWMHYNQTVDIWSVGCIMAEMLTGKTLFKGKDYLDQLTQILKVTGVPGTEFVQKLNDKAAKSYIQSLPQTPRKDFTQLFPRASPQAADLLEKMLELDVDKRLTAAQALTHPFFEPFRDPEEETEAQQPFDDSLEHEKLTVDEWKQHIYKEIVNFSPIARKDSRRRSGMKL
How it was run: as §1

WNK2(h) = WNK2(h) (Homo sapiens, UniProt Q9Y3S1)
How it was run: as §1

cKit(D816H)(h) = cKit(D816H)(h) (Homo sapiens, UniProt P10721, D816H)
How it was run: as §1

FAK(h) = FAK(h) (Homo sapiens, UniProt Q05397)
Sequence of FAK(h) (Q05397 whole entry): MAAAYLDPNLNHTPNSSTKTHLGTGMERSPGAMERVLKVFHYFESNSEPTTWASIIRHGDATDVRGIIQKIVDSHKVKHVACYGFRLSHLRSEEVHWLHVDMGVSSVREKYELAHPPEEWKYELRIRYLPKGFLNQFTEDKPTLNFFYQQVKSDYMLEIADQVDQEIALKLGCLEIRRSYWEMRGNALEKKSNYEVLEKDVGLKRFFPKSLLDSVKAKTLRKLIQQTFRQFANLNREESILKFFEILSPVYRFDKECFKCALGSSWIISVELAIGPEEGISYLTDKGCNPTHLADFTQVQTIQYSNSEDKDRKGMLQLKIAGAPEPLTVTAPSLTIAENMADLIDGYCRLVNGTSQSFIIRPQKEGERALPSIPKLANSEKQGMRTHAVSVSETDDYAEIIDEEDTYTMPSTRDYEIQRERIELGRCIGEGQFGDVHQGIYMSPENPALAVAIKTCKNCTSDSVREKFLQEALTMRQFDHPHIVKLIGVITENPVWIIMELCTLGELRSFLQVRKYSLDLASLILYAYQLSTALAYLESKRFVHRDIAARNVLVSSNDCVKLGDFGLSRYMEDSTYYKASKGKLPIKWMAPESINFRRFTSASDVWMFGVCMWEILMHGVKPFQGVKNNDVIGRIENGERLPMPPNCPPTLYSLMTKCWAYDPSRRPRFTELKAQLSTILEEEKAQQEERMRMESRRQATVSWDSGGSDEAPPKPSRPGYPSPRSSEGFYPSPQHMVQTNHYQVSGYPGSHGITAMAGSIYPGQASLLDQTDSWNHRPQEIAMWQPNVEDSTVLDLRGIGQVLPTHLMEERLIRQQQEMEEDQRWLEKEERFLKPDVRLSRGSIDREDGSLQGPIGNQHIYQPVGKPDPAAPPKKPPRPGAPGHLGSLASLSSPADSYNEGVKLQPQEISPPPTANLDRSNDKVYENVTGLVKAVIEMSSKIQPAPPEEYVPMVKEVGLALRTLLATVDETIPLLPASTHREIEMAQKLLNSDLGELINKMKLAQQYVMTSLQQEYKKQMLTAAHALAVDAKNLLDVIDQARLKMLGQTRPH
How it was run: as §1

Sequence of BRK(h) (Q13882 whole entry): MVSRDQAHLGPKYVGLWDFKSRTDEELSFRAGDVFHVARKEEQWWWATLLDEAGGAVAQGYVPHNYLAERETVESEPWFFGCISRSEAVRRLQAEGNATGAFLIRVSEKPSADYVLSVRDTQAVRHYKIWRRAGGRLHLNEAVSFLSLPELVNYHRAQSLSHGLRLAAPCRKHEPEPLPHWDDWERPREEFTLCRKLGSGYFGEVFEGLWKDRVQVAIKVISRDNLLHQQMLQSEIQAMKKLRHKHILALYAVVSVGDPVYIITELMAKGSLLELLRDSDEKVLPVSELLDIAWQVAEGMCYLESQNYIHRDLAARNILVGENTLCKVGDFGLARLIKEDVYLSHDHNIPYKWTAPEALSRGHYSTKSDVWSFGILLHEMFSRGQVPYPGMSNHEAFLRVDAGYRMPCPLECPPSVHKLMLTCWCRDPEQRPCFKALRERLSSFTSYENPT

Sequence | % activity (BRK(h)) [%] | % activity (DDR2(h)) [%] | % activity (FGFR1(V561M)(h)) [%] | % activity (MAPK2(h)) [%] | % activity (MAPKAP-K2(h)) [%] | % activity (MINK(h)) [%] | % activity (PDK1(h)) [%] | % activity (RIPK2(h)) [%] | % activity (SAPK4(h)) [%] | % activity (WNK2(h)) [%] | % activity (cKit(D816H)(h)) [%] | % activity (FAK(h)) [%]
FAKLAARLYRKALARQLGVAA [MMI-0300] | 35 | 94 | 74 | 98 | 5 | 48 | 135 | 97 | 96 | 64 | 126 | 
HRRIKAWLKKIKALARQLGVAA (Mammal) [MMI-0500] | 41 | 79 |  | 60 | 9 | 5 | 178 | 30 | 48 | 8 | 194 | 94
KAFAKLAARLYRKALARQLGVAA [MMI-0400] | 18 | 95 | 74 | 93 | 5 | 52 | 159 | 98 | 91 | 54 | 143 | 96
YARAAARQARAKALARQLGVAA [MMI-0100] | 70 |  | 108 |  | 19 | 96 |  |  |  | 95 | 79 | 
YARAAARQARAKALNRQLGVA (Mammal) [MMI-0200] | 127 |  | 72 |  | 35 |  | 143 | 98 |  | 94 |  | 110
